Reference: publication PMC3076715
Like-named read-outs stand apart in the source and are kept apart here.

Legend:
Assay in all cases: fluorescence polarization
Dnmt3a-CD [1] = biological target: T1, Dnmt3a-CD (murine, UniProt O88508 608-908)
M.SssI = M.SssI (UniProt P15840 1-386)
Dnmt3a-CD [2] = biological target: T1, Dnmt3a-CD; remark: listed apart in the source
Dnmt3a-CD [3] = biological target: T1, Dnmt3a-CD; remark: listed apart in the source

T1 sequence (O88508 608-908): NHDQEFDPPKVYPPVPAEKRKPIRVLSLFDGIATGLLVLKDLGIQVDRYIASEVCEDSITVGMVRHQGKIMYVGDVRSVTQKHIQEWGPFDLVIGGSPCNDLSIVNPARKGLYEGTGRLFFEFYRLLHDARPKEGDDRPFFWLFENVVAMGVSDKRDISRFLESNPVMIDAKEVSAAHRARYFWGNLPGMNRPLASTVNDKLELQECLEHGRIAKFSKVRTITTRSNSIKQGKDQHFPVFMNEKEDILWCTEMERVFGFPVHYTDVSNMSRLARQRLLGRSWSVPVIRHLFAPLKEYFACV
Chain of M.SssI (P15840 whole entry): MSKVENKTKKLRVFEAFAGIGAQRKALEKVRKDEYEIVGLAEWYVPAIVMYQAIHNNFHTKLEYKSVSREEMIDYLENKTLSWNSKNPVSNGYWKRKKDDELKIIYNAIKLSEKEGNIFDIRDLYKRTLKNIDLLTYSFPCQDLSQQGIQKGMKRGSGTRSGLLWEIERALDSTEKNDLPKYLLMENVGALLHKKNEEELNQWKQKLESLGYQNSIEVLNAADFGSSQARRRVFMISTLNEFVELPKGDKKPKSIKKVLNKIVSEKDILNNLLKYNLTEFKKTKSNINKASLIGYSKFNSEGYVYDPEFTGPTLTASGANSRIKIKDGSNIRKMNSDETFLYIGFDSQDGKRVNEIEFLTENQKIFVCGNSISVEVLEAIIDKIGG

B1: GCB+C/CGCG (dsDNA)
DNA 1: GAGCCAAGCGCACTCTGA
DNA 2: TCAGAGTGCGCTTGGCTC
modifications: (+)-trans-anti-B[a]PDE-N2-dG at strand 1 position 10
binding result (Dnmt3a-CD [1]): binds

B2: GCGC/CGCG (dsDNA)
DNA 1: GAGCCAAGCGCACTCTGA
DNA 2: TCAGAGTGCGCTTGGCTC
binding result (M.SssI): binds
binding result (Dnmt3a-CD [2]): binds

B3: GCGC/CGMG (dsDNA)
DNA 1: GAGCCAAGCGCACTCTGA
DNA 2: TCAGAGTGCGCTTGGCTC
modifications: 5-methylcytosine at strand 2 position 9
binding result (Dnmt3a-CD [3]): binds
